Experimental data taken from patent US20220380442A1 (published 2022).

B1: ANDV-12 (antibody, V domains shown)
VH: EVQLVESGGGLVQPGGSLRLSCAASGFAFSSYWMTWVRQAPGKGLEFVANIKYDASEKYYVDSVKGRFTISRDNGRNSFYLQMNSLRAEDTAVYYCAVPGPGYSFAYDYWGQGTQVTVSS
VL: DIQMTQSPSSLSASVGDRITITCRASQSVGTYLNWYQQKPGKAPKLLIYEASSLQSGVPSRFSGSGSGTDFTLTISRLQPEDFATYSCQQSDIPPWTFGQGTKVEIK
B2: ANDV-54 (antibody, V domains shown)
VH: EVQLVESGGGVVQPGRSLRLSCAASGFTFSPYGMHWVRQAPGKGLEWVAVVWYDGNNKYYADSVKGRFTISRDNSKNTLYLQMNSLRAEDTAVYYCARENTPTYNSGYYFDYWGQGTLVTVSS
VL: QSALTQPASVSGSPGQSITISCTGTSSDVGSYDLVSWYQQHPGKAPKLIIYEGSKRPSGVSNRFSGSKSGNTASLTISGLQAEDEADYYCCSYAGSSTWVFGGGTKVTVL
B3: ANDV-44 (antibody, V domains shown)
VH: QVQLVQSGAEVRKPGASVKVSCKASGYTFTSNGVSWVRQAPGQGLEWMGWIAGYDGYTNYTQKFQGRVTMTTDTSTTTVYMELRSLRFDDTAVYYCARDEGLHNWKFNAMDVWGQGTTVIVSS
VL: EIVLTQSPGTLSLSPGERATLSCRASQSVSSSYLAWYQQKPGQAPRLLMSETSRRATGIPDRFSGSVSGTDFILTINRVDPEDFAVYYCQQYSSPPWTFGQGTKVEIK
B4: SNV-25 (antibody, V domains shown)
VH: QVQLQESGPGLVKPSGTLSLTCAVSGGSISSSNWWSWVRQPPGKGLEWIGEIYHSGSTNYNPSLKSRATISVDKSKNQFSLKLSSVTAADTAFYYCARARGEWLAHFDYWGQGTLVTVSS
VL: DIQMTQSPSTLSASVGDRVTITCRASQSISRWLAWYQQKPGKAPKLLIYKASSLESGVPSRFSGSGSGTEFTLTISSLQPDDFAIYYCQQYNTDKTFGQGTKVEIK
B5: SNV-36 (antibody, V domains shown)
VH: QVQLVESGGGVVQPGRSLRLSCAASGFRFSSYAMHWVRQAPGKGLEWVATIWFDGTNEYYGDSAKGRFTISRDNSMSTLYLQMNSLRVEDTAVYYCARPANGYSDYYYGMDVWGQGTTVTVSS
VL: QSALTQPASVSGSPGQSITISCTGTSSDVGTYNLVSWYQQHPGKAPKLMIFEVNKRPSGVSYRFSGSKSGNTASLTISGLQAEDEADYYCCSYADNRTPFLFGTGTKVTVLG
B6: SNV-57 (antibody, V domains shown)
VH: QVQLVESGGGVVQPGRSLRLSCAASGFTFSSYAMHWVRQAPGKGLEWVALISLDGFNTYYPDSVKGRFTISRDSSKNTLFLQLNSLRIEDTAVYYCVKDRGPTGSGSYGMDVWGQGTTVTVSS
VL: SYELTQPPSVSVSPGQTASITCSGDKLGNKFACWYQQKPGQSPVLVIHQDKKRPSGIPERFSGSNSGNTATLTISGTQAVDEADYYCQAWDSSNVVFGGGTKLTVL
B7: SNV-30 (antibody, V domains shown)
VH: QLQLQESGSRLVKSSETLSLTCAVSGGAITSGRNTWSWIRQPPGKGLEWIGFIYYSGSTYSNPITYSSPSLKSRVTISLDTSKNQFSLKLNSVTAADTAVYYCARAKPSNLNFYYYGMDVWGQGTTVTVSS
VL: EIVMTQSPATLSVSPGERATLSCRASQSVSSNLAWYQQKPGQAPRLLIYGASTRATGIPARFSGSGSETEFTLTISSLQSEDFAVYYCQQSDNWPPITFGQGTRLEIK
B8: SNV-27 (antibody, V domains shown)
VH: QVQLVQSGAEVKKPGASVRVSCKAYGYSFNDYFMHWVRQAPGQGLEWMGRVKPSTGGTRYAQKFQGRVTMTLDTSTSTAYVELSSLSSDDTAVYFCARKLGPLGDCSSSSCYSALDVWGQGTMVTVSS
VL: DIQMTQSPSTLSASVGDRVTITCRASESISNWLAWYQQKPGKAPKLLISKASSLESGVPSRFSGSGSGTEFTLTIGSLQPDDFATYYCQQYNTYSWTFGQGTKVDIK
B9: SNV-42 (antibody, V domains shown)
VH: EVQLVESGGGLVQPGGSLRLSCAASGFTFSTYEMNWVRQAPGKGLEWISYIRSSGSTVYYADSVKGRFTISRDNAKNLLYLQMNSLRAGDTAVYYCARIPGGYTGYFDYWGQGALVTVSS
VL: QSVLTQPPSVSGAPGQRVTISCTGSSSNIGAGYYVHWYQQLPGTVPKLLIYGNNNRPSGVPDRFSGSKSGTSASLAITGLQTEDEADYYCQSYDSSLSGWVFGGGTKLTVL
B10: SNV-32 (antibody, V domains shown)
VH: QVQLVQSGAEVKKPGSSVKVSCRASGGTFRSYSISWVRQAPGQGLEWMGDIIPIFSTTNYAQKFQGRVTITADEATSTAYMELSSLRSDDTAVYYCARPSNLLNWFDPWGQGTLVTVSS
VL: EIVMTQSPATLSVSPGERATLSCRASQSVNSNLVWYQQKPGQAPRLLIYGASTRATGIPARISGSGSGTEFTLTISSLQSEDFAVYYCQQYDNRPQTFGQGTKVEIK
B11: SNV-56 (antibody, V domains shown)
VH: EVQLVESGGRLVRPGGSLRLSCAASGFTFSHYNMNWVRQAPGKGLEWVSSINSRNGYTYYADSVKGRFTISRDNAKNSLYLQMNSLRPEDTAVYYCARDPPLYSGYDLGYYYYGMDVWGQGTTVTVSS
VL: DIQMTQSPSTLSAFVGDRVTITCRANQNISKWLAWYQQKPGKAPNLLIHKASSLESGVPSRFSGSGSGTEFTLTISSLQPDDFATYSCQQYNSYPWAFGQGTRVEIK
B12: SNV-21 (antibody, V domains shown)
VH: QVQLVESGGGVVQPGRALRLSCAASGFTFSSYGMHWVRQAPGKGLEWVAVVWNDGGNKYYADSVKGRFTISRDNSKNTLYLQMNSLRAEDTAVYFCARDGYYVSSGYHPLRYYYYYMDVWGKGTTVAVSS
VL: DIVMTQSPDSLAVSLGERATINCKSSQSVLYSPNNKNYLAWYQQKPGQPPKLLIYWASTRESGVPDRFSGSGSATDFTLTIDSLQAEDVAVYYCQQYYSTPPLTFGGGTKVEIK
B13: SNV-45 (antibody, V domains shown)
VH: ELQLVESGGGLIRPGGSLRLSCTAAGFTFSNYNMNWVRQAPGKGLDWVSYISSSGGTTIYADSVKGRFTISRDNAKDSLYLQMNSLRDDDTAIYYCVRGRGQLATHFDYWGQGTLVTVSS
VL: ESVLTQFPDFQSVTPKEKVTITCRASQSIHINLHWYQQKPHQSPKLLIKYASQSIAGVPSRFSGSGSGTEFTLTINGLEAEDAATYYCHQSNSLPWTFGQGTKVEIK
B14: SNV-50 (antibody, V domains shown)
VH: EMQLLESGGGLIQPGESLRLSCAGSGFTFRNYAMSWVRQAPGKGLQWVSAISASGGITHYADSVKGRFTISRDNSKNTLFLQMNSLRAEDTAVYYCAKGEIMRDTGYHDDAFDVWGQGKMVTVSS
VL: DIQLTQSPSFLSASVGDRVTITCRASQGISSYLVWYQQKPGEAPKLLIYTASTLQSGVPSRFSGSGSGTEFTLTISSLQPEDFATYHCQQVESYPYSFGQGTKLEIK
B15: SNV-67 (antibody, V domains shown)
VH: QVQLVQSGAEVKKPGASVRVSCKASGYTFTAYFMNWVRQAPGQGLEWMGRINPISGDTNFAQNFQGRVTMTRDTSITTVYMELNRLTSDDTAVYYCARVRSGYSYIDFWGQGTLVTVAS
VL: SYDLTQPPSVSVSPGQTARITCSGDALSNQYAYWYQQRPGQAPVVVIYKYSERPSGIPERFSGSSSGTTVTLTISGVQAEDEADYYCQSADRLGTYWVFGGGTKLTVL
B16: SNV-53 (antibody, V domains shown)
VH: EVQLVQSGAEVKTPGESLKISCKGSGYRFYTYWIAWVRQMPGKGLEWMGIIYPGDSDPRYSPSFQGQVTISADKSISTAYLQWSSLKASDTAMYYCVRVQGTMLDYWGQGTLVTVSS
VL: QSVLTQPPSVSGAPGQSVTISCSGSSSNIGAGYDVHWYQQLLGRAPKLLIHGNSNRPSGVPDRFSGSKSGTSGSLAITGLQSEDEADYYCQSYDISLSGWVFGGGTKLTVL
B17: SNV-3 (antibody, V domains shown)
VH: QVQLQQSGPGLVKPSQTLSLTCAISGDSVSSNSAAWNWIRQSPSRGLEWLGRTYYRSKWYNDYAVSVKSRITINPDTSKNQFSLQMNSVTPEDTAVYYCARDRRKLEPPPFSYYYYGLDVWGQGTTVTVSS
VL: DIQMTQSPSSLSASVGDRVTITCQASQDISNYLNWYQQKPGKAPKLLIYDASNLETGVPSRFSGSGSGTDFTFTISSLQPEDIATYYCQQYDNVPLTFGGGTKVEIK
B18: SNV-68 (antibody, V domains shown)
VH: QVQLQESGPGLVKPSGTLSLTCLVSGGSIGSSHWWSWVRQSPGKGLEWFGEIHHTESTNYNPSLKSRVTITMDKSKNQFYLKLTSVTAADTAVYYCARAGATFAEPFSLWGQGTMVTVSP
VL: DIQMTQSPSTLSASVGDRVTITCRAGQSVTNWLAWYQQKPGKAPKLLIYKASILASGVPSRFSGSGSGTEFTLTISSVQPDDSAVYYCQQYKSHRTFGQGTKVEIK
B19: SNV-24 (antibody, V domains shown)
VH: EVQLLESGGGLIQSGGSLRLSCVVSGIDFSNYAMTWVRHAPGKGLEWISTISGSGDTTNYADSAKGRFTISRDNSRNTLFVRINSLRAEDTAIYYCAKTMGPVSGQYAFDIWGQGTKVTVSS
VL: SYELTQPPSVSVSPGQTATITCSGDNLGNKFASWYQQKPGLSPVLVIYQDKKRPSGIPERFSGSNSGNTATLTISGTQAMDEADYFCQAWHSGSVFGGGTKLTVL
B20: SNV-65 (antibody, V domains shown)
VH: QVQLQESGPGLVKPSQTLSLTCTVSGGSISSGGYFWSWIRQHPGKGLEWIGYIYYSGSTYYNPSLKSRVTISIDTSKIQFSLKLTSVTAADTAVYYCARDVGGFDIWGQGTMVTVSS
VL: DIQMTQSPSSLSASIGDRVTITCQASQDINKYLNWYQQKPGKAPKVLIYDASNLETGVPSRFSGSGSGTDFTFTISSLQPEDVATYYCQQYENLPRTFGQGTKVEIK
B21: SNV-39 (antibody, V domains shown)
VH: QEQLEESGGGVVQPGRSLTLSCAASGFTFRSYDMHWVRQAPGKGLEWVALISYDGRNKHYGDSVKGRFTISRDNSKNTLYLHLSSLRAEDTSVYYCARGADNGLFTDSWGQGTLVIVSS
VL: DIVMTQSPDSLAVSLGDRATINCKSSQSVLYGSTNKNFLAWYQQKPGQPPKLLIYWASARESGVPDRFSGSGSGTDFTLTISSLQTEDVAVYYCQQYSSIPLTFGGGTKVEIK
B22: SNV-66 (antibody, V domains shown)
VH: QVRLVESGGGVVQPGRSLRLSCAASGFTFRSYGMHWVRQAPGKGLEWVALISLDGSEKHYADSVKGRLTISRDNSKNMLYLQMNNLRVEDTAVYYCAKDRPYSWRDVLDYWGQGTLVTVSS
VL: DIQMTQSPSSLSASVGDRVTITCRASRDIHTSLNWYQHTPGKAPELLIYAASTLEMGVPSRFSGSGSGTDFTFTISSLQPEDIATYYCQQYDELPLTFGGGTKVEMK
B23: SNV-62 (antibody, V domains shown)
VH: QVLLVQSGAEVKKPGASVKVSCKASGYTFTSYFIHWVRQAPGQGLEWMGMINPISGNTNYAQKFQGRVTMTRDTSTRTVYMQLSSLTFEDTAVYSCVRWTTVPSSFDFWGQGTLVTVSS
VL: SYELTQPPSVSVSPGQTARITCSGDALPNQYVNWYQQKPGQAPVLMMFKDNQRPSGIPERFSGSRSGTTVTLSISGVQAEDEADYHCQSADRTATSVAFGGGTKLTVL

target: T1, Sin Nombre virus (SNV) glycoproteins Gn and Gc displayed on the surface of Expi293F cells transfected with … (Sin Nombre virus); test: flow

| Binder | EC50 |
| --- | --- |
| B1 | 16 ng/mL |
| B2 | 3670 ng/mL |
| B3 | 1090 ng/mL |

target: T1, Sin Nombre virus (SNV) glycoproteins Gn …; test: flow; remark: another data set of the same source

| Binder | EC50 |
| --- | --- |
| B4 | 7.2 ng/mL |
| B5 | 10 ng/mL |
| B6 | 6 ng/mL |
| B7 | 5.5 ng/mL |
| B8 | 11 ng/mL |
| B9 | 5.9 ng/mL |
| B10 | 14 ng/mL |
| B11 | 66 ng/mL |
| B12 | 20 ng/mL |
| B13 | 9.9 ng/mL |
| B14 | 5.2 ng/mL |
| B15 | 15 ng/mL |
| B16 | 3.5 ng/mL |
| B17 | 5.6 ng/mL |
| B18 | 6.5 ng/mL |
| B19 | 7.2 ng/mL |
| B20 | 3.4 ng/mL |
| B21 | 14 ng/mL |
| B22 | 7.7 ng/mL |
| B23 | 2.6 ng/mL |
